Source: the supplement of paper PMC9170038

Test system: MS2 coat protein
Assay: apparent KD of MS2 coat protein; designed switch direction (-1 OFF switch, 1 ON switch): -1; higher = weaker reporter binding
Summary of the method: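 The buffer was Tris-HCl pH 7.5 with KCl, MgCl2, BSA, DTT, tRNA and Tween-20. In it, SNAP-549-labelled MS2 coat protein was titrated in doubling steps from 0.7 or 1.5 nM to 3 µM over chip-bound RNA switches transcribed by stalled E. coli RNA polymerase on Illumina chips. Apparent KD is the per-design median over clusters of curve fits to normalised fluorescence.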

[1] = Eterna round: R95, input ligand: FMN 200 uM
[2] = Eterna round: R95, input ligand: microRNA oligo, concentration not stated
[3] = Eterna round: R95, input ligand: none
[4] = input ligand: microRNA oligo, concentration not stated

| Sequence | apparent KD of MS2 coat protein (input ligand: FMN 200 uM) [nM] | apparent KD of MS2 coat protein (input ligand: none) [nM] | apparent KD of MS2 coat protein [1] [nM] | apparent KD of MS2 coat protein [2] [nM] | apparent KD of MS2 coat protein [3] [nM] | apparent KD of MS2 coat protein [4] [nM] |
| --- | --- | --- | --- | --- | --- | --- |
| GAUCAUGCAGGAUAUACAGUAACCAUGAAAACAUGGUUGUAACAUGAGGAUCACCCAUGUAGAAGGGCAUGAUC [Omei Ex2 A4] (Eterna round: R97, puzzle: Exclusion 2) | 23.5 | 15.4 | – | – | – | – |
| GAUCAUGCAGGAUAUACAGUAUCCAUGAAAACAUGGAUCAAACAUGAGGAUCACCCAUGUAGAAGGGCAUGAUC [Omei Ex2 A23] (Eterna round: R97, puzzle: Exclusion 2) | 19.1 | 17.9 | – | – | – | – |
| GAUCAUGCAGGAUAUACAGUAUCCAUGAAAACAUGGAUCUAACAUGAGGAUCACCCAUGUAGAAGGGCAUGAUC [Omei Ex2 A24] (Eterna round: R97, puzzle: Exclusion 2) | 17.9 | 19 | – | – | – | – |
| GAUCAUGCAGGAUAUACAGUUUCCAUGAAAACAUGGACCUCACAUGAGGAUCACCCAUGUAGAAGGGCAUGAUC [Omei Ex2 A27] (Eterna round: R97, puzzle: Exclusion 2) | 982 | 443 | – | – | – | – |
| GAUCAUGCAGGAUAUACAUGGAACAUGUAAUCAUGAAUUUCACAUGAGGAUCACCCAUGUAGAAGGGCAUGAUC [Omei Ex2 A14] (Eterna round: R97, puzzle: Exclusion 2) | 151 | 2740 | – | – | – | – |
| GAUCAUGCAGGAUAUACAUGGAUCAUGAAAACAUGAAUUUCACAUGAGGAUCACCCAUGUAGAAGGGCAUGAUC [Omei Ex2 A11] (Eterna round: R97, puzzle: Exclusion 2) | 13.9 | 293 | – | – | – | – |
| GAUCAUGCAGGAUAUACAUUUUCCAUGAAAACAUGGUCCUCACAUGAGGAUCACCCAUGUAGAAGGGCAUGAUC [Omei Ex2 A30] (Eterna round: R97, puzzle: Exclusion 2) | 37.6 | 855 | – | – | – | – |
| GAUCGCAUAGUCAGGAUAUCGAAGUAUCGGGACCGCGAGAAGGGACAUGAGGAUCACCCAUGUUUCAUGGGAAG [Riesaratce] (Eterna round: R97, puzzle: Brourd's mod of Exclusion 4) | 182 | 113 | – | – | – | – |
| GAUCGGACGUGGUCAGGUAACAUGAGGAUCACCCAUGUAGGUCUAGGAACAAGCUUUUUGAAAGCUCGUCUUAUAUA [JR_SV3TOV1_Sub057] (puzzle: Sensor v3, turn-off variant 1) | – | – | 44.8 | 25.5 | 49.3 | – |
| GAUCGUUUAGAGGAUAUCGUGCUAAACAUUACAUGAGAAGGCUAGACAUGAGGAUCACCCAUGUAUACUCGUGA [Exclusion 6 - 8:a] (puzzle: Exclusion 6) | – | – | 23.7 | 14.7 | 18.7 | – |
| GAUCUACAUGAGGAUCACCCAUGUAAGGAUAUCUACAUUGAAGCUUCGGCUUCAAUGUAGAGAAGGUACAAUUA [E1/10-B1] (Eterna round: R97, puzzle: Exclusion 1) | 40.7 | 27.9 | – | – | – | – |
| GAUCUGACAGGAUAUACAUGAGGAUCACCCAUGUGCGAGCUAGCGAAAGCUAGCUCAGGUAGAAGGGUCAGAUC [Ex3 dot plot directed] (Eterna round: R96, puzzle: Exclusion 3) | 15.1 | 15.7 | – | – | – | 13.1 |
| GAUCUGACAGGAUAUACAUGAGGAUCACCCAUGUGCGAGCUAGCGAAAGCUAGCUCAGGUAGAAGGGUCAGAUC [Ex3 dot plot directed] (puzzle: Exclusion 3) | – | – | – | 11.6 | – | – |
| GAUCUGGCAGGAUAUACAUGAGGAUCACCCAUGUGCGAGCUAGCGAAAGCUAGCUCAGGUAGAAGGGUCAGAUC [Ex3 dot plot directed v1] (puzzle: Exclusion 3) | – | – | – | 10.8 | – | – |
| GAUCUGUGAGGAUAUUUAUCGUAGUGCGUGUAGCCUGCGCCGGAGAAGGCACAUGAGGAUCACCCAUGUUCUAA [Eternabot (L1) Solution 45] (Eterna round: R97, puzzle: Exclusion 4) | 57.2 | 51.8 | – | – | – | – |
| GAUGAGGUAGGAUAUACGAGAAUAUAGGGUAGAUAUAUAACACAUGAGGAUCACCCAUGUAGAAGGACCAGUAG [Mat - Exclusion 2 - Mod of my Tesla design - D70] (puzzle: Exclusion 2) | – | – | – | 33.6 | – | – |
| GAUGCUCCGGUCAGGAUAUCAGGUGCAAGCACCGGUGAGAAGGGACAUGAGGAUCACCCAUGUAAAAUAAGACC [Aenxeza] (Eterna round: R97, puzzle: Brourd's mod of Exclusion 4) | 40.7 | 24 | – | – | – | – |

| Sequence | apparent KD of MS2 coat protein (input ligand: FMN 200 uM) [nM] | apparent KD of MS2 coat protein (input ligand: none) [nM] | apparent KD of MS2 coat protein [1] [nM] | apparent KD of MS2 coat protein [2] [nM] | apparent KD of MS2 coat protein [3] [nM] | apparent KD of MS2 coat protein [4] [nM] |
| --- | --- | --- | --- | --- | --- | --- |
| GAUGGACAUGAGGAUCACCCAUGUAAGGAUAUACGGUUGGUAGAGAGAGAGAGAAAUGGUAGAAGGUACGGAAA [JR_Exclu1_Sub051] (puzzle: Exclusion 1) | – | – | 36.5 | 46.6 | 50.3 | – |
| GAUGUGGGUUUCCGGAGUAACAUGAGGAUCACCCAUGUAGAAGUUGGAGGGAUAAUGCUUUUUGCUCGUUACACGUG [JR_SV3TOV1_Sub054] (puzzle: Sensor v3, turn-off variant 1) | – | – | 404 | 323 | 538 | – |
| GAUGUGGGUUUUCAGAGUAACAUGAGGAUCACCCAUGUAGAAGUUGAAGGUAUCAAGCGAAUGGCUCGUCAAAUGUG [JR_SV3TOV1_Sub049] (puzzle: Sensor v3, turn-off variant 1) | – | – | 229 | 182 | 287 | – |
| GAUGUGUUAGGAUAUCGAAGUAUCUGUGCUGUGGCGAAUCACGAGAAGGAACAUGAGGAUCACCCAUGUGGUUG [Eternabot (L2) Solution 34] (Eterna round: R97, puzzle: Exclusion 4) | 68.9 | 63.9 | – | – | – | – |
| GAUUAACAUGAGGAUCACCCAUGUGAGGAUAUGGACUUGCCCACUUACCCUUUAGAGUCUAGAAGGCGCAUUUC [1986#31] (Eterna round: R97, puzzle: Exclusion 1) | 23.1 | 20.9 | – | – | – | – |
| GAUUACAACGAAGACAAGCACAUGAGGAUCACCCAUGUGUAAAAUCGAGUGGGCCCACUCGUACCUCAACACCGUCU [JR_Sensorv2_tov_Sub304] (Eterna round: R96, puzzle: Sensor v2, turn-off variant) | 18.9 | 19.8 | – | – | – | 15.8 |
| GAUUAUGCGAGCUUUAGGGACAUGAGGAUCACCCAUGUUCGUCUUAUUAAUCUAGGUACACUAACAUACCUAAAUCU [JMF 10] (puzzle: Sensor v3, turn-off variant 1) | – | – | 23.9 | 37.6 | 21.4 | – |
| GAUUAUGCGAGCUUUAGGGACAUGAGGAUCACCCAUGUUCGUCUUAUUAAUCUGGGUACGCUAACAUACCUAAAUCU [JMF 41] (puzzle: Sensor v3, turn-off variant 1) | – | – | 28.5 | 40.7 | 26.7 | – |
| GAUUAUGCGAGCUUUAGGGACAUGAGGAUCACCCAUGUUCGUCUUAUUAGUCUAGAUACACUGACAUACCUAAAUCU [JMF 57] (puzzle: Sensor v3, turn-off variant 1) | – | – | 14.5 | 18.2 | 13.8 | – |
| GAUUAUGCGAGCUUUAGGGACAUGAGGAUCACCCAUGUUCGUCUUAUUAGUCUAGGUACGCUGACAUACCUAAAUCU [JMF 100] (puzzle: Sensor v3, turn-off variant 1) | – | – | 21.8 | 32.9 | 21.6 | – |
| GAUUAUGCGAGCUUUAGGGACAUGAGGAUCACCCAUGUUCGUCUUAUUAGUCUGGAUACACUGACAUACCUAAAUCU [JMF 59] (puzzle: Sensor v3, turn-off variant 1) | – | – | 14.8 | 20.9 | 16.4 | – |
| GAUUAUGCGAGCUUUAGGGACAUGAGGAUCACCCAUGUUCGUCUUAUUAGUCUGGAUGCACUGACAUACCUAAAUCU [JMF 81] (puzzle: Sensor v3, turn-off variant 1) | – | – | 18.4 | 25.2 | 19.1 | – |
| GAUUAUGCGAGCUUUAGGGACAUGAGGAUCACCCAUGUUCGUCUUAUUAGUCUGGGUGCACUAACAUACCUAAAUCU [JMF 37] (puzzle: Sensor v3, turn-off variant 1) | – | – | 135 | 81.4 | 153 | – |
| GAUUAUGCGAGCUUUAGGGACAUGAGGAUCACCCAUGUUCGUCUUAUUGAUCUAGGUGCGCUAACAUACCUAAAUCU [JMF 49] (puzzle: Sensor v3, turn-off variant 1) | – | – | 26.2 | 34.7 | 30 | – |
| GAUUAUGCGAGCUUUAGGGACAUGAGGAUCACCCAUGUUCGUCUUAUUGGUCUGGAUGCACUGACAUACCUAAAUCU [JMF 82] (puzzle: Sensor v3, turn-off variant 1) | – | – | 17.1 | 25.5 | 21.5 | – |
| GAUUGAGAGCAGGAUAUAUUCCUGAUGUAUGAAGUAGAAGGGCUCACAUGAGGAUCACCCAUGUGAUCCUGAAA [Mat - Exclusion 6 - Eli Mod - D3] (Eterna round: R97, puzzle: Exclusion 6) | 13.8 | 14 | – | – | – | – |
| GAUUGAUAAGGAUAUACAUGAGGAUCACCCAUGUGCUUCAGCUAGGAGACUAGCAUUGGUAGAAGGUAUUAAUC [Mod of lroppy 12 - Jieux - Exclusion 3] (Eterna round: R97, puzzle: Exclusion 3) | 51.8 | 21.8 | – | – | – | – |
